In patent US20200171068A1, “COMPOSITIONS COMPRISING APTAMERS AND NUCLEIC ACID PAYLOADS AND METHODS OF USING THE SAME” (Children's National Medical Center, priority 2017, published 2020):
Entries after “also recorded” stand apart in the source; their conditions may differ.

System: MDA-MB-231 cell line
Experiment: Aptamer binding assay to MDA-MB-231 cells by flow cytometry
Design: species or system human
Conditions: biotin-conjugated aptamer
Method: DNA sequences for anti-human KIT aptamer (21) and mouse c-Kit aptamers (22) conjugated with biotin at 3′ were functionalized by short denaturation-renaturation step (95° C. 10 min, 5 min snap-cooling on ice). These DNA sequences were 5′-[…] […]-3′ (SEQ ID NO: 2) for human KIT, 5′-[…]-3′ (SEQ ID NO:3) for mouse c-Kit. These activated aptamers were used for binding assay to the cell lines by flow cytometry. For chimera preparation, human KIT-aptamer or mouse c-Kit-aptamer miR-26a chimera was assembled by three compartments of DNA/RNA hybrid sequences. The sequences were 5′-[…] […]/C3 (SEQ ID NO:4) spacer/CCUAUUCUGG-3′(SEQ ID NO:5) for human KIT aptamer+the part of passenger sequence for miR-26a-5p, 5′-[…]/C3 (SEQ ID NO:6) spacer/CCUAUUCUGG-3′ (SEQ ID NO:7) for mouse cKit aptamer+the part of passenger sequence for miR-26a-5p, 5′-GUUACUUGCACG/TEG (triethylene glycol)-Cholesterol-3′ (SEQ ID NO:8) for the part of sequence for miR-26a-5p+cholesterol, and 5′-[…]-3′ (SEQ ID NO:9) for guide sequence for miR-26a-5p (RNA sequences were represented as italic). The guide sequence for scramble control was […] (SEQ ID NO:10). To protect the oligonucleotide sequences from nuclease degradation, phosphorothioate bonds were introduced between the last 3 nucleotides at the 5′-end of DNA aptamers. The RNA sequences were modified with 2′-fluoro-uridines. […]

B1: human KIT aptamer: DNA aptamer against human KIT, SEQ ID NO:2, conjugated with biotin at 3′ for binding assay (nucleic acid)
DNA: GAGGCATACCAGCTTATTCAAGGGGCCGGGGCAAGGGGGGGGTACCGTGGTAGGACATAGTAAGTGCAATCTGCGAA
modifications: DNA, 3' {Biotin}, backbone not given here; further chemistry not fully specified
  binding to MDA-MB-231 cell line: confirmed the binding; also recorded: nearly identical distribution of KIT expression
